From PMC1479692, “The PLAC1-homology region of the ZP domain is sufficient for protein polymerisation” (BMC Biochemistry, 2006)

Molecular target: the molecule itself
Assay: SEC; purified MBP-ZP-N-6his on Sephacryl S-300 HR (FPLC) and Bio-Sil SEC-250-5 (HPLC) columns, ~300 kDa Mr cut-off; buffer F (10 mM Na-HEPES pH 8.0, 100 mM NaCl, 1 mM maltose, 1 mM NaN3); also with 10 mM DTT, and after pre-incubation with 10 mM EDTA

B1: MBP-ZP-N-6his fusion protein (PLAC1-homology region, ZP-N, of the ZP domain of mouse ZP3) (domain or fragment, UniProt P10761 42-143, looked up)
chain: VKVECLEAELVVTVSRDLFGTGKLVQPGDLTLGSEGCQPRVSVDTDVVRFNAQLHECSSRVQMTKDALVYSTFLLHDPRPVSGLSILRTNRVEVPIECRYPR
modifications: intramolecular disulfides Cys 46-Cys 139 and Cys 78-Cys 98 (ZP3 numbering)
notes: mouse ZP3 (zona pellucida sperm receptor), aa 42-143, the 102-amino acid ZP-N fragment; The assay buffer contained 1 mM maltose; also called recombinant ZP-N; ZP-N fragment; source: E. coli Origami B (DE3) (trxB gor), co-expressing ΔSSdsbC and TrxA(G33P, P34Y); purified (Ni2+ HiTrap Chelating HP, amylose resin, Mono Q); not shown: His6 (LEH6), C-terminal, kept
  binding result: binds
